Measurements taken from US20070298997A1, “Compounds useful in treating diabetic microvascular complications and age-related macular degeneration” (priority 2003, published 2007).

Experiments:
[1] = test system: rat Müller cell line, rMC-1; test: Quantification of viable cells by MTT assay, Müller cell line; type: cell-based; details: 5-160 nM, 72 h, P>0.05
Description: FIG. 2 illustrates the specific inhibition of endothelial cell proliferation by recombinant kallistatin. RCEC were treated with recombinant kallistatin at concentrations of 5,10, 20, 40, 80 and 160 nM for 72 h. Viable cells were quantified by MTT assay. […] This effect appeared to be kallistatin concentration-dependent, with an apparent IC50 of 50 nM (FIG. 2) which is similar to that of K5, a known angiogenic inhibitor (Zhang et al., 2001).
Quantification of viable cells: Cells were plated in 12-well plates in triplicate and cultured in the growth medium until they reached 60-70% of confluency. The culture medium was replaced with a medium containing 1% fetal bovine serum (FBS). Recombinant kallistatin was added to the cover medium to various concentrations and incubated with the cells for 72 h. The viable cells were quantified by the MTT (3-[4,5-dimethylthiazol-2-yl]-2,5-dephenyl tetrazolium bromid, Roche, Mannheim, Germany) assay following a protocol recommended by the manufacturer. The effect of kallistatin on viable cell number was analyzed using Student's t test.

[2] = test system: vascular permeability in the retina, iris and choroid; test: Vascular permeability by Evans blue leakage in OIR rats; type: in vivo, Brown Norway rats
Description: Next, the effect of kallistatin on vascular permeability was determined. At P14, two days after the rats were returned to normoxia, the OIR rats received an intravitreal injection of 3 μl of kallistatin of concentrations of 2.4, 4.8 and 9.6 mg/ml in the right eye (4 animals per dose group), and the same volume of PBS in the left. Two days after the kallistatin injection (P16), vascular permeability was measured by the Evans blue leakage method. […] Kallistatin injection decreased vascular permeability in a dose-dependent manner in the retina, iris and choroid of the hyperoxia-treated rats (FIG. 6).
Measurement of vascular permeability: Vascular permeability was quantified by measuring albumin leakage from blood vessels into the retina, iris and choroid using Evans blue following a documented protocol (Xu et al., 2001) with minor modifications. Evans blue dye (Sigma, St. Louis, Mo.) was dissolved in normal saline (30 mg/ml), sonicated for 5 min and filtered through a 0.45-μm filter (Millipore, Bedford, Mass.). The rats were anesthetized, and Evans blue (30 mg/kg) was injected over 10 seconds through the femoral vein using a glass capillary under microscopic inspection. Evans blue non-covalently binds to plasma albumin in the blood stream (Radius et al., 1980). Immediately after Evans blue infusion, the rats turned visibly blue, confirming their uptake and distribution of the dye. The rats were kept on a warm pad for 2 h to ensure the complete circulation of the dye. Then the chest cavity was opened, and the rats were perfused via the left ventricle with 1% paraformaldehyde in citrate buffer (pH=4.2) which was pre-warmed to 37° C. to prevent vasoconstriction. The perfusion lasted 2 min under the physiological pressure of 120 mmHg to clear the dye from the vessel. Immediately after perfusion, the eyes were enucleated and the retina, iris and choroid were carefully dissected under an operating microscope. Evans blue dye was extracted by incubating each sample in 150 μl formamide for 18 h at 70° C. The extract was centrifuged (TL; Beckman) at 70,000 rpm (Rotor type: TLA 100.3) for 20 min at 4° C. Absorbance was measured using 100 μl of the supernatant at 620 nm. The concentration of Evans blue in the extracts was calculated from a standard curve of Evans blue in formamide and normalized by the total protein concentration in each sample. Results were expressed in micrograms of Evans blue per milligrams of total protein content.

VEGF binding to RCEC = test: VEGF binding assay (125I-VEGF); design: species or system bovine; details: 1 h, 0.5, 5 and 50 μg competitor (VEGF:kallistatin 1:5, 1:50, 1:500)
Description: FIG. 8 illustrates inhibition of VEGF binding to RCEC by kallistatin. […] To determine the competition between kallistatin and VEGF in RCEC binding, ^125I-VEGF was added to RCEC together with 0.5, 5 and 50 μg of unlabeled kallistatin to result in VEGF:kallistatin molar ratios of 1:5, 1:50 and 1:500, respectively.
VEGF binding assay: VEGF (PeproTech, Inc., Rocky Hill, N.J.) was labeled with 125I using the Chloromine T ^125I Labeling Kit (ICN Pharmaceuticals, Inc. Costa Mesa, Calif.) following a protocol recommended by the manufacturer. For the binding assay, RCEC were seeded in 12-well plates and cultured until 80% confluency was reached. The culture medium was replaced with serum-free medium. ^125I-VEGF was added to the medium, 2.5×10^5 CPM/well with and without different concentrations of kallistatin or recombinant plasminogen kringle 5 (K5) and incubated with the cells for 1 h. The medium was removed and cells washed three times with PBS. The cells were then lysed by the addition of 0.35 ml 10% SDS. The cell lysates were collected, and the 125I-VEGF bound to RCEC was quantified by a gamma counter.

TGF-β = test: TGF-β-induced fibronectin secretion in HMC (ELISA); type: cell-based, human; details: 5 ng/ml TGF-β, 3 days
Description: FIG. 12 illustrates that kallistatin blocks TGF-β-induced fibronectin over-production in HMC. HMC were treated with 5 ng/ml TGF-β without or with different concentrations of kallistatin for 3 days. Fibronectin secreted into the medium was measured by ELISA (mean±SD, n=3). TGF-β induced significant over-production of fibronectin.
Kallistatin blocks the function of TGF-β, a major pathogenic factor in DN. TGF-β is a major inflammatory and fibrosis mediator. It plays a major role in the development of DN. To explore the role of kallistatin in DN, the effect of kallistatin in blocking TGF-β activity in kidney cells was determined. HMC were treated with 5 ng/ml TGF-β for 3 days without or with different concentrations of kallistatin.

[3] = 3 μl of 4.8 mg/ml intravitreal, P<0.05
[4] = 3 μl of 9.6 mg/ml intravitreal at P14, measured P16, P<0.01

B1: kallistatin: Recombinant His-tagged rat kallistatin (serpin, SEQ ID NO:1) expressed in E. coli and affinity-purified (protein, listed as Homo sapiens)
chain: DGILGRDTLPHEDQGKGRQLHSLTLASINTDFTLSLYKKLALRNPDKNVVFSPLSISAALAILSLGAKDSTMEEILEVLKFNLTEITEEEIHHQGFGHLLQRLSQPEDQAEINTGSALFIDKEQPILSEFQEKTRALYQAEAFVADFKQCNEAKKFINDYVSNQTQGKIAELFSELDERTSMVLVNYLLFKGKWKVPFNPNDTFESEFYLDEKRSVKVPMMKIKDLTTPYIRDEELSCSVLELKYTGNASALFILPDQGKMQQVESSLQPETLKKWKDSLRPRIISELRMPKFSISTDYNLEEVLPELGIRKIFSQQADLSRITGTKNLHVSQVVHKAVLDVDETGTEGAAATAVTAALKSLPQTIPPLNFNRPFMLVITDNNGQSVFFMGKVTNPM
modifications: His tag
inhibition of the Müller cell line (viable cells) [1]: did not result in any significant inhibition | vascular permeability, choroid ([2]; 3 μl of 2.4 mg/ml intravitreal): did not show any significant effect | vascular permeability, iris ([2]; 3 μl of 2.4 mg/ml intravitreal): did not show any significant effect | vascular permeability, retina ([2]; 3 μl of 2.4 mg/ml intravitreal): did not show any significant effect | vascular leakage, choroid ([2]; 3 μl of 4.8 mg/ml intravitreal): not in the choroid | vascular leakage, iris [2, 3]: significantly decreased vascular leakage | vascular leakage, retina [2, 3]: significantly decreased vascular leakage | vascular permeability, iris [2, 4]: significant decrease in permeability | vascular permeability, retina [2, 4]: significant decrease in permeability | vascular permeability, choroid ([2]; 3 μl of 9.6 mg/ml intravitreal at P14, measured P16, P<0.05): significant decrease in permeability | VEGF bound to RCEC (VEGF binding to RCEC): decreased in a kallistatin concentration-dependent manner | TGF-β-induced fibronectin secretion (TGF-β): blocked the TGF-β-induced fibronectin secretion in a concentration-dependent manner | TGF-β-induced fibronectin secretion (TGF-β; listed as Kallistatin): blocked the TGF-β-induced fibronectin production in a concentration-dependent manner
